The chains are these.
B27: NbALFA^ST (NbALFA clone 1G5) (VHH)
VHH: EVQLQESGGGLVQPGGSLRLSCTASGVTISALNAMAMGWYRQAPGERRVMVAAVSERGNAMYRESVQGRFTVTRDFTNKMVSLQMDNLKPEDTAVYYCHVLEDRVDSFHDYWGQGTQVTVSS
notes: Alpaca single-domain antibody; also called ALFA Selector^ST (immobilised on agarose resin); FluoTag-X2 anti-ALFA (coupled to AbberiorStar635P or IRDye800CW)

Where no end group is shown, it is not given here.

The target of assay [1] is B27. As to the kind of experiment: peptide elution from NbALFA^ST resin; tag position C.
Assay [2] concerns the target B27. As to the kind of experiment: peptide elution from NbALFA^ST resin; tag position M.
For assay [3], the target named is B27. Nature of the assay: peptide elution from NbALFA^ST resin; tag position N.
In assay [4] the target is T1, YfgM (non-tagged) (E. coli, UniProt P76576 1-206).
T1 construct: Control without tag; also called wild-type YfgM; untagged YfgM
T1 sequence: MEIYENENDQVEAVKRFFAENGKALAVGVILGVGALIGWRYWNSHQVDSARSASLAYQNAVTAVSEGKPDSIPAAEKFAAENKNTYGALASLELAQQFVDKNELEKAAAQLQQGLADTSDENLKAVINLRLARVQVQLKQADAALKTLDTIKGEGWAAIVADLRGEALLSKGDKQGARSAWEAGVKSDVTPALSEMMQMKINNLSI
Nature of the assay: pull-down on ALFA Selector^ST from DDM lysate, Western blot.

Assay [5] has as its target T2, PpiD (E. coli, UniProt P0ADY1 1-623).
T2 sequence (looked up): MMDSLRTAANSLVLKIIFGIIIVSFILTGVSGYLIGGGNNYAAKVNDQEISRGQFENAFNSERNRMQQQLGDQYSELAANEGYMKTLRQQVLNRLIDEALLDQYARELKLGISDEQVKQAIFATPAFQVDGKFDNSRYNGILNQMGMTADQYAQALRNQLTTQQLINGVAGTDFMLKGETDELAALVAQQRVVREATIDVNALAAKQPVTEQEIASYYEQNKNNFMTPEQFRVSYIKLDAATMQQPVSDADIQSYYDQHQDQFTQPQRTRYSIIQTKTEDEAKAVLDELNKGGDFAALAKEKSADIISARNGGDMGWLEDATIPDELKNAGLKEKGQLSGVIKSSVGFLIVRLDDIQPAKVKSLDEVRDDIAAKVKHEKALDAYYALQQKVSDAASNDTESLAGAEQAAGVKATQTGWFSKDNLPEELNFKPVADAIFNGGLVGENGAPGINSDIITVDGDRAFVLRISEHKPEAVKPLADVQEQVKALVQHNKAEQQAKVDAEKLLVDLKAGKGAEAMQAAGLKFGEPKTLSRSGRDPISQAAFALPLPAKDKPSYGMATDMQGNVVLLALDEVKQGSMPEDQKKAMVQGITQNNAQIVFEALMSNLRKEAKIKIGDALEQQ
The description is as above.

Assay [6] deals with T3, ALFA^ST peptide (Ac-PSRLEEELRRRLTEP-Amide).
T3 construct: also called free ALFA^ST peptide; ALFA peptide
T3 peptide: Ac-PSRLEEELRRRLTEP-NH2
As to the kind of experiment: X-ray structure of the complex.

Assay [7] addresses maltose-binding protein (MBP) fused to multiple epitope tags (FLAG, HA, myc and ALFA^ST). Nature of the assay: dot blot, 2.7 nM nanobody or primary antibody.
Assay [8] deals with T4, ALFA^ST-FLAG-Vimentin (Mus musculus (Mouse), UniProt P20152 2-466).
T4 construct: Expressed in COS-7 cells; also called ALFA^ST-Vimentin; ALFA^ST-tagged Vimentin
T4 sequence (P20152 other isoform, or with tags, fused parts or gaps): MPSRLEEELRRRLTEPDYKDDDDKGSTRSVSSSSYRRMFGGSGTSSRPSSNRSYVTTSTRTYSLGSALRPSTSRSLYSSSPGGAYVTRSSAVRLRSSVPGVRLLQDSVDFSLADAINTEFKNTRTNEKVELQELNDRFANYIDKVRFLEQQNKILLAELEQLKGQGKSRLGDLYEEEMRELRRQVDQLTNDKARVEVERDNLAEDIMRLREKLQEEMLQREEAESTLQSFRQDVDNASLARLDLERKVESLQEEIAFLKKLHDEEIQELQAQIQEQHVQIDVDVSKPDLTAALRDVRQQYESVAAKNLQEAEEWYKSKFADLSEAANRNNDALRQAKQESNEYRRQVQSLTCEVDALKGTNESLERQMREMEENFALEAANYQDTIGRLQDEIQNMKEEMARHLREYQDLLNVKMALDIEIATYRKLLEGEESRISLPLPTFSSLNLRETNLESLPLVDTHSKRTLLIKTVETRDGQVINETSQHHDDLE
Nature of the assay: direct immunofluorescence on PFA-fixed COS-7 cells.

Assay [9] concerns the target T5, ALFA^PE-FLAG-Vimentin (Mus musculus (Mouse), UniProt P20152 2-466).
T5 construct: Expressed in COS-7 cells; also called ALFA^PE-Vimentin; ALFA^PE-tagged Vimentin
As to the kind of experiment: direct immunofluorescence on PFA-fixed COS-7 cells.

Assay [10] addresses T4, ALFA^ST-FLAG-Vimentin. Nature of the assay: intrabody co-expression in COS-7 cells, fluorescence microscopy.
For assay [11], the target named is T1, YfgM (non-tagged). As to the kind of experiment: pull-down on ALFA Selector^PE from DDM lysate, Western blot.
Assay [12] has as its target T2, PpiD. The assay is described as above.

The text below walks through data of patent US20220048947A1 (NANOTAG BIOTECHNOLOGIES, published 2022).

T5 sequence (P20152 other isoform, or with tags, fused parts or gaps): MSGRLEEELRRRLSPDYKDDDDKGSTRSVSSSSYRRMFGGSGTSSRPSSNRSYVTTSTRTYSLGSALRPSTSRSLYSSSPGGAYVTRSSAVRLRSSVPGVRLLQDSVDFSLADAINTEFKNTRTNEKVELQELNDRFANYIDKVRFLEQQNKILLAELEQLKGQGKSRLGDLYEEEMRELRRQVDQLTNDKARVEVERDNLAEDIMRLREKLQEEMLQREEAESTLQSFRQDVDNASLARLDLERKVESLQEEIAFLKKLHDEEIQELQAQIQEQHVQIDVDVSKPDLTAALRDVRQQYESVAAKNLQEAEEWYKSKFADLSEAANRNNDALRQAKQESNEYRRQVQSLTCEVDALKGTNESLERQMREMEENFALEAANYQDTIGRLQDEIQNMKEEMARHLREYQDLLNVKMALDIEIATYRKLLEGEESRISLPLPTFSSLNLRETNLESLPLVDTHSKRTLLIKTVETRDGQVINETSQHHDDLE

B1: gPSRLEEELRRRLT. (SEQ ID NO: 18) (peptide)
peptide: GPSRLEEELRRRLT
notes: Tag variant tested inside a fusion protein, position C
In assay [1], B1 showed a t1/2 of over 100 min.

B2: gPSRLEEELRRRLTAas. (SEQ ID NO: 21) (peptide)
peptide: GPSRLEEELRRRLTAAS
notes: as for B1
In the case of B2, the t1/2 in assay [1] is over 100 min.

B3: spSRLEEELRRRLTAdp (SEQ ID NO: 16) (peptide)
peptide: SPSRLEEELRRRLTADP
notes: Tag variant tested inside a fusion protein, position M
For the molecule B3, the t1/2 in [2] is over 100 min.

B4: MsSRLEEELRRRLTEp (SEQ ID NO: 30) (peptide)
peptide: MSSRLEEELRRRLTEP
modifications: not fully specified (residues 2, 16); printed as MsSRLEEELRRRLTEp
notes: Tag variant tested inside a fusion protein, position N
For B4, the t1/2 in assay [3] was over 100 min.

B5: spSRLEEELRRRLDAp (SEQ ID NO: 12) (peptide)
peptide: SPSRLEEELRRRLDAP
modifications: not fully specified (residues 1, 2, 16); printed as spSRLEEELRRRLDAp
notes: as for B3
Consider B5, for which, in assay [2], the t1/2 is over 100 min.

B6: gPSRLEEELRRRLTAa. (SEQ ID NO: 20) (peptide)
peptide: GPSRLEEELRRRLTAA
notes: as for B1
Take B6: the t1/2 in assay [1] was over 100 min.

B7: spSGLEQELRRRLDAp (SEQ ID NO: 23) (peptide)
peptide: SPSGLEQELRRRLDAP
notes: as for B3
In the case of B7, the t1/2 in [2] is over 100 min.

B8: spSRLEEELRRRLEAp (SEQ ID NO: 13) (peptide)
peptide: SPSRLEEELRRRLEAP
notes: as for B3
B8 came in with a t1/2 in [2] of over 100 min.

B9: spSRLEEELRRRLTEp (SEQ ID NO: 15) (peptide)
peptide: SPSRLEEELRRRLTEP
notes: as for B3
Consider B9, for which the t1/2 in assay [2] is over 100 min.

B10: spSRLEEELRRRLTAp (SEQ ID NO: 11) (peptide)
peptide: SPSRLEEELRRRLTAP
notes: as for B3
As to B10, the t1/2 in assay [2] is over 100 min.

B11: spSGLEQELRRRLTAp (SEQ ID NO: 22) (peptide)
peptide: SPSGLEQELRRRLTAP
notes: as for B3
For B11, in assay [2], the t1/2 was over 100 min.

B12: spSGLEQELRRRLEAp (SEQ ID NO: 24) (peptide)
peptide: SPSGLEQELRRRLEAP
notes: as for B3
Molecule B12 returned a t1/2 in assay [2] of over 100 min.

B13: spSGLEQELRRRLTEp (SEQ ID NO: 25) (peptide)
peptide: SPSGLEQELRRRLTEP
notes: as for B3
For B13, the t1/2 in assay [2] is over 100 min.

B14: gpSRLEEELRRRLTEp. (SEQ ID NO: 27) (peptide)
peptide: GPSRLEEELRRRLTEP
notes: as for B1
Regarding B14, the t1/2 in assay [1] is over 100 min.

B15: spSGLEEELRRRLTEp (SEQ ID NO: 17) (peptide)
peptide: SPSGLEEELRRRLTEP
notes: as for B3
Consider B15, for which the t1/2 in assay [2] is over 100 min.

B16: spSRLEEELRRRLTDp (SEQ ID NO: 14) (peptide)
peptide: SPSRLEEELRRRLTDP
notes: as for B3
As for B16, the t1/2 in assay [2] was over 100 min.

B17: gpSRLEEELRRRLTAp. (SEQ ID NO: 26) (peptide)
peptide: GPSRLEEELRRRLTAP
notes: as for B1
In the case of B17, the t1/2 in [1] was over 100 min.

B18: pSRLEEELRRRLTE (SEQ ID NO: 7) (peptide)
peptide: PSRLEEELRRRLTE
notes: Tag tested inside a fusion protein, position C; also called ALFA^ST tag (C-terminal)
Consider B18, for which the t1/2 in [1] was over 100 min.

B19: psTRLEEELRRRLTAp (SEQ ID NO: 10) (peptide)
peptide: PSTRLEEELRRRLTAP
notes: as for B3
On to B19, for which the t1/2 in assay [2] is over 100 min.

B20: pgSRLEEELRRRLTAp (SEQ ID NO: 09) (peptide)
peptide: PGSRLEEELRRRLTAP
notes: as for B3
B20 showed a t1/2 in assay [2] of over 100 min.

B21: gPSRLEEELRRRLTA. (SEQ ID NO: 19) (peptide)
peptide: GPSRLEEELRRRLTA
notes: as for B1
In [1], B21 displayed a t1/2 of over 100 min.

B22: grSRLEEELRRRLTA. (SEQ ID NO: 08) (peptide)
peptide: GRSRLEEELRRRLTA
notes: as for B1
On to B22, for which the t1/2 in assay [1] is over 100 min.

B23: gpSRLEEELRRRLTE. (SEQ ID NO: 28) (peptide)
peptide: GPSRLEEELRRRLTE
notes: as for B1
B23 had a t1/2 in assay [1] of over 100 min.

B24: MSRLEEELRRRLTEp (SEQ ID NO: 29) (peptide)
peptide: MSRLEEELRRRLTEP
notes: as for B4
As for B24, the t1/2 in assay [3] is over 100 min.

B25: pSRLEEELRRRLTEp (SEQ ID NO: 6) (peptide)
peptide: PSRLEEELRRRLTEP
modifications: not fully specified (residues 1, 15); printed as pSRLEEELRRRLTEp
notes: Tag tested inside a fusion protein, position M; also called ALFA^ST tag (internal)
In assay [2], B25 returned a t1/2 of over 100 min.

B26: MSGLEQELRRRLTPs (SEQ ID NO: 110) (peptide)
peptide: MSGLEQELRRRLTPS
modifications: not fully specified (residue 15); printed as MSGLEQELRRRLTPs
notes: as for B4
In [3], B26 yielded a t1/2 of under 2 min.
Regarding B27, the binding result in assay [4] was “no binding”; in assay [5], “no binding”; in [6] it was “binds”; in assay [8], “binds”; in assay [9], “binds”. The “fold lower detection limit against all other epitope tags” value in [7] was about 10 fold.

B28: NbALFA^ST-mScarlet-I (VHH)
VHH: EVQLQESGGGLVQPGGSLRLSCTASGVTISALNAMAMGWYRQAPGERRVMVAAVSERGNAMYRESVQGRFTVTRDFTNKMVSLQMDNLKPEDTAVYYCHVLEDRVDSFHDYWGQGTQVTVSS
notes: Intrabody fusion expressed in COS-7 cells; also called pNT1004
As to B28, the binding result in [10] is reported as “binds”.

B29: NbALFA^PE (VHH)
VHH: EVQLQESGGGLVQPGGSLRLSCTASGVTISALNAMAMGWYRQAPGEERVMVAAVSSRGNAMYRESVQGRFTVTRDFTNKMVSLQMDNLKPEDTAVYYCHVLEDRVDSFHDYWGQGTQVTVSS
notes: Weaker mutant of NbALFA^ST made by rational mutagenesis from the crystal structure; used on agarose (ALFA Selector^PE) or in solution (MST); also called NbALFA^PE mutant; ALFA Selector^PE (immobilised on agarose resin)
Consider B29, for which the binding result in assay [11] and in [12] was “no binding” throughout.
